Measured values reported in paper PMC7755716.

Test system: DtxR (Corynebacterium glutamicum (derived from KCTC No. 1445))
Assay: EMSA
Details: 150 uM Mn2+, 5 mM Mg2+, 50 mM Tris-HCl pH 7.5, 5 mM MgCl2, 40 mM KCl, 5% glycerol, 1 mM DTT, 150 uM MnCl2, 30 min at room temperature, 200 ng DNA, 0-350 ng DtxR dimer in 10 ul, 15% …

Substance	binding signal (% of wild-type affinity)	binding signal (% of wild-type affinity) (reference)
NCgl1959 regulatory region, C-14G (399 bp)	40	
NCgl1959 regulatory region, wild type (399 bp)		100
